Results taken from the supplement of paper PMC9732359.
± gives the uncertainty stated by the source.

Assay: protein stability index of a GFP-peptide fusion (yeast GPS) (PSI 1-4); higher = more stable; sorted into four equal gates, so the index is relative within each strain
Settings: pdr5∆
How it was run: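 Plasmids isolated from each sorting gate were PCR-amplified and Illumina-sequenced, and barcodes assigned the reads to strains. The gates, four of equal size, were set by GFP/Cherry fluorescence ratio on mid-log cultures in leucine-free medium. These cultures were yeast carrying a pooled library of tiled 17-residue yeast protein peptides fused downstream of GFP on a plasmid that also expresses Cherry. The protein stability index is the sum of every gate's read frequency times its gate number.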

| Sequence | protein stability index |
| --- | --- |
| TTLNEMFRYKTNLYKLK [PUP3] | 2.66 ± 0.11 |
| TTNMNVNNCIWALKSSL [RGR1] | 1.32 ± 0.065 |
| TTRVGGGGAARRQAVDV [RPS5] | 1.63 ± 0.12 |

Same assay, conditions: san1∆

| Sequence | protein stability index |
| --- | --- |
| TDAGVLALKLELLDFLT [YJL039C/NUP192] | 2.96 ± 0.052 |
| TDGDSILYYDVLFITPD [BRR2] | 2.54 ± 0.068 |
| TDGELDIEFINSLLTIV [RPC34] | 2.4 ± 0.092 |
| TDLHLPKKEYDDDAVRR [NSL1] | 1.42 ± 0.24 |
| TDLRFQSSAIGALQESV [HHT1] | 1.32 ± 0.17 |
| TDRLSTTQRRYEKAQKD [SMC1] | 2.63 ± 0.14 |
| TDVLEISKQRTFAVILF [YMR129W/POM152] | 2.41 ± 0.058 |
| TDYLYRRLHDENLMVQR [YCS4] | 2.45 ± 0.067 |
| TEAGFFAIRDDRDHINP [RPT4] | 3.12 ± 0.058 |
| TEEELQAAVPDNAEDDS [BRN1] | 3.05 ± 0.083 |
| TEELQTQYATSQKTKTI [SMC2] | 3.11 ± 0.23 |
| TEHSKVTRFDEKQIEEL [SRB6] | 3.11 ± 0.081 |
| TEKLSPLASEESLTNSN [YGL100W/SEH1] | 3.12 ± 0.099 |
| TELMNRSPLVTPMDESS [SRP72] | 3.03 ± 0.076 |
| TENDIKALQSIGQLIGE [RPT4] | 2.74 ± 0.099 |
| TEQQIEVPEGVTVSIKS [RPL9A] | 1.99 ± 0.073 |
| TESNELIQKLQNSANNN [IRR1] | 3.24 ± 0.053 |
| TFDGIRMSSEEVNSLLL [GRR1] | 3.14 ± 0.15 |
| TFEKHDRVEDICERIFE [RRI2] | 3.15 ± 0.23 |
| TFGTKHAADSQNNKPSF [YLR335W/NUP2] | 3.18 ± 0.17 |
| TFHDELNLKFKEKWPSL [YML103C/NUP188] | 2.81 ± 0.082 |
| TFPPEVLARISPELSLQ [RRP43] | 2.53 ± 0.081 |
| TFSWLNAELLDYLFHLL [YLR018C/POM34] | 1.46 ± 0.14 |
| TFTKKCLENARSQISEK [SIR4] | 3.15 ± 0.05 |
| TGETYQRFVGHKSDVMS [ASC1] | 2.6 ± 0.096 |

| Sequence | protein stability index |
| --- | --- |
| TGKIVDVVGTLSRNGKP [FAS1] | 3.48 ± 0.094 |
| TGLCSFDYSVILNSIPA [YJL039C/NUP192] | 1.49 ± 0.095 |
| TGLNGSGKSNILDAICF [SMC2] | 3.28 ± 0.063 |
| TGNFIIPSGNVWNYTFM [PRP8] | 2.88 ± 0.077 |
| TGNNLYDRNSNNNHKDK [SWI1] | 2.89 ± 0.06 |
| TGVVYNVTKSSVGVIIN [RPL21A] | 1.95 ± 0.095 |
| TGWISKCTAEGIKVSLL [RPC25] | 2.66 ± 0.08 |
| THAQRTGLSQIPNRRFT [PRP8] | 2.83 ± 0.048 |
| THLEIEPFTILGAVAGL [RET1] | 2.08 ± 0.12 |
| THPHAADGSSYMEQGNN [SKI6] | 3.02 ± 0.052 |
| TIIFIDELDAIGTKRFD [RPT5] | 2.5 ± 0.075 |
| TILCTPTGGKAKLSEGT [RPS27A] | 3.12 ± 0.072 |
| TINEMMKHLGRSEGNPV [FAS2] | 2.53 ± 0.066 |
| TISILAAPSGNYKQLTL [RRP43] | 1.92 ± 0.058 |
| TITNSSSSSDIIVPDLI [YML103C/NUP188] | 2.83 ± 0.061 |
| TIWCVCDSYLDADKELS [BRR2] | 2.92 ± 0.057 |
| TIYYVDSDGTRLKGDIF [PRE2] | 2.97 ± 0.096 |
| TKAQQKTAEQIAAERAA [RPL7B] | 3.07 ± 0.13 |
| TKENLEVSGENVVEADL [QCR2] | 3.52 ± 0.1 |
| TKFSKLIGRPPLLVPGM [FAS1] | 1.91 ± 0.078 |
| TKHLMPQDLTFNAGSNP [RPB7] | 3.22 ± 0.26 |
| TKKSKLESTKAETDYVD [DSN1] | 2.73 ± 0.087 |
| TKLYFDVNEKIRFRIER [RPC25] | 2.81 ± 0.084 |
| TKMFEDRREKAERTMSK [SMC2] | 3.22 ± 0.086 |
| TKSSLNDLDYDLIADTI [YML103C/NUP188] | 2.27 ± 0.067 |

| Sequence | protein stability index |
| --- | --- |
| TKTILSGTDGSTIGILL [SRP72] | 3.06 ± 0.084 |
| TLENTLKAAFVAIGNTY [RPS2] | 1.72 ± 0.14 |
| TLFCCLLRSRLATRRVL [RPO21] | 1.15 ± 0.15 |
| TLKNRGLPLGIAEEKMW [YGR119C/NUP57] | 1.44 ± 0.29 |
| TLSNAERAKNVNGLLQV [GAL11] | 3.08 ± 0.26 |
| TLSPNVTDSSLLKLLTR [GRR1] | 2.83 ± 0.043 |
| TLTKISMLFKTSQKMTS [MCD1] | 2.45 ± 0.13 |
| TLVNKSTGLKNASDALK [RPS1B] | 3.4 ± 0.092 |
| TMIKKTTLVTRREELQQ [SMC3] | 3.1 ± 0.16 |
| TMMTVEEKPDVTYSDVG [RPT1] | 1.83 ± 0.14 |
| TMRKISSETDDDHSQVI [DSN1] | 3.1 ± 0.035 |
| TMYMEVYTAIYNYCVNK [CDC53] | 1.51 ± 0.061 |
| TNFKEEITDASLNLQYV [YML103C/NUP188] | 3.18 ± 0.13 |
| TNHVLEVFSVLGIEAAR [RPO31] | 2.77 ± 0.076 |
| TNILTKVDINADSAVNR [PRP28] | 3.3 ± 0.055 |
| TNKDNKAELIKPIQNGE [ARP9] | 3.4 ± 0.046 |
| TNLGQPHSLATKTTGKC [RPS2] | 2.38 ± 0.088 |
| TNLSGGEKTLSSLALVF [SMC4] | 3.04 ± 0.25 |
| TNNMEKIIEDLRQKHEF [SMC2] | 3.13 ± 0.033 |
| TNSHLPAGKQVEISLVN [FAS1] | 3.36 ± 0.069 |
| TNSTYNPASATDNMSGR [YJL039C/NUP192] | 2.47 ± 0.054 |
| TNVEDPLAKKQTVRLIK [SIR2] | 2.77 ± 0.056 |
| TNVQRIAAYIRRHRNPD [SMC1] | 3.29 ± 0.18 |
| TPAMIPYPGSPMHSIMP [DSN1] | 2.88 ± 0.036 |
| TPKITAAEKSFKPPKNK [SEC65] | 3.04 ± 0.12 |

| Sequence | protein stability index |
| --- | --- |
| TPSQIGVLLRDAHGVTQ [RPS13] | 1.91 ± 0.13 |
| TPSTETAASVFKELCYE [PRE3] | 2.29 ± 0.062 |
| TQATSEDGTSASFQIVE [RPC19] | 3.05 ± 0.051 |
| TQGGNVNLDNTAVGKAA [RPT5] | 3.277 ± 0.032 |
| TQNSRHYMVHEALNLLK [LIN1] | 2.76 ± 0.077 |
| TQTVSGTPPMLHQRTHK [DSN1] | 2.89 ± 0.16 |
| TQVALNESEKDQWLEEY [UBP6] | 2.66 ± 0.077 |
| TRHQNTIHAKRKIVFRC [RPN4] | 2.8 ± 0.07 |
| TRKAMLDPLEVHMLDFP [PRP8] | 3.03 ± 0.054 |
| TRQSSRNFDTHENYIQD [MCD1] | 2.84 ± 0.08 |
| TSALSELSGLISSAKLD [QCR2] | 1.7 ± 0.13 |
| TSGKVELPKKLLNLPPF [SRB8] | 2.67 ± 0.26 |
| TSKSFSKLLYDDVTCDK [SIN4] | 2.7 ± 0.054 |
| TSKSLVKRYRLAPTQLS [SIN4] | 2.11 ± 0.077 |
| TSMTGDANLLEEGETSR [SWI3] | 3.2 ± 0.037 |
| TSNWEIYKPLLFEIVSN [SRB8] | 2.11 ± 0.14 |
| TSPEKKDGGDKPPSSAF [YAR002W/NUP60] | 3.3 ± 0.081 |
| TSPLYMDPGAPLPVETP [SSN2] | 2.75 ± 0.17 |
| TSPQYIPSPLSSTKPPG [NUT1] | 2.4 ± 0.048 |
| TSQYGTPSTETAASVFK [PRE3] | 2.1 ± 0.047 |
| TTIDSLNAELESKLIPQ [SMC3] | 2.46 ± 0.14 |
| TTLKSVTIASEIYYDPD [RPO21] | 2.82 ± 0.099 |
| TTLNEMFRYKTNLYKLK [PUP3] | 1.76 ± 0.13 |
| TTNMNVNNCIWALKSSL [RGR1] | 1.36 ± 0.21 |
